According to the nanobody polyreactivity screen of Harvey et al. (2022):

Assay: yeast display, Sf9 membrane polyspecificity reagent, FACS + sequencing; frameworks hold sequencing errors
How it was run: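 Genes from sorted yeast were amplified by colony PCR, read by MiSeq 2 × 250 sequencing and filtered on CDR length. These cells carried a synthetic nanobody library in Saccharomyces cerevisiae BJ5465 and were sorted by FACS into low and high (top ~1%) gates on anti-HA and streptavidin fluorescence. Polyreactivity is labelled according to the gate of origin.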

Row | Sequence | polyreactivity (PSR sort gate)
1 | QVQLVESGGGLVQAGGSLRLSCAASGNTFNNNAMGWYRQAPGKERELVAITGDGGSTYYADSVKGRFTISRDNAKNTVYLQMNSLKPEDTAVYYCAADYLYRYQTMGYWGQGTQVTVSS | low polyreactivity
2 | QVQLVESGGGLVQAGGSLRLSCAASGSTFARYAMGWYRQAPGKERELVAAISANGGITYYADSVKGRFTISRDNAKNTVYLQMNSLKPEDTAVYYCAARKSAYRFYRMNYWGQGTQVTVSS | high polyreactivity
3 | QVQLVESGGGLVQAGGSLRLSCAASGSIFGAYAMGWSRQAPGKERELVAAISGSGTSTYYADSVKGRFTISRDNAKNTVYLQMNSLKQEDTAVYYCAADGTYFYIYLGDRFDYWGQGTQVTVSS | low polyreactivity
4 | QVQLVESGGGLVQAGGSLRLSCAASGRTFLIYAMGWYRQAPGKERELVAAITSGGRTKYADSVKGRFTISRDNAKNTVYLQMNSLKPEDTAVYYCAAESNRLRYYYWGQGTQVTVSS | high polyreactivity
5 | QVQLVESGGGLVQAGGSLRLSCAASGSIFFNTMGWYRQAPGKERELVAAINTSGGRTYYADSVKGRFTISRDNAKNTVYLQMNSLKPEDTAVYYCATTAYSQYYTYYYWGQGTQVTVSS | high polyreactivity
6 | QVQLVESGGGLVQAGGSLRLSCAASGSTFYYYAMGWYRQAPGKEMELVAAISGSGGNTYYADSVKGRFTISRDNAKNTVYLQMNSLKPEDTAVYYCAADYGYPLGVSWYGYGYWGQGTQVTVSS | low polyreactivity
7 | QVQLVESGGGLVQAGGSLRLSGAASGRIFGSYARGWYRQAPGKEREFVAGIRSVGSTNYADSVKGRFTISRDNAKNTVYLQMNSLKPEDTAVSYCASRLWHVSYAGQGGDYWGKGTQVTVSS | low polyreactivity
8 | QVQLVESGGGLVQAGGSLRISCAASGITFVYYDMAWYRQAPGKDSELVAAISGGGSTNYADSVKGRFTISRDNAKNTVYLQRKSLKPEDTAVYYCNAELYYGDEGDSWGQGTLVTVSS | low polyreactivity
9 | QDQLVESGPGLVQAGGSLRLSCAPSGRIFTVYAMGWYRQAPGKERELVAAIDWSDGSTYYADSVKGRFTISRDNAKNTVYLHMNSLKPEATAVYYCAAETYWVVEYDYWGQGTQVTVSS | high polyreactivity
10 | QVQLVESGGGLVQAGGSLRLSCAASGYTSYRYAMGWYRQAPGKERELVAAINWSGSSTYYADSVKGRFTISRDYAKNTVYLQMNSLKPEDTAVYYCAARRYRSPIGGYDYWGQGTQVTVSS | high polyreactivity
11 | QVQLVESGGGLDQAGGSLRLSCAASGITFLDNDMGWYRQAPGKERELVAAINSGVSTYYADSVKGRFTISLDNAKNTVYLQMNSLKPEDTAVYYCAADRPDVAGDYWGQGTQVTVSS | low polyreactivity
12 | QVQLVESGGGLVQAGGSLRLSCAASGLIFSRYTMGWNRQAPGKERELVAAISRSGTNTYYADSVKGRFTISRDNAKNTVYLQMNSLKPEDTAVYYCAARGYYRDYDSWGQGTQVTVSS | high polyreactivity
13 | QVQLVESGGGLVQAGGSLRLSCAASGSTFGSNAMGWYRQAPGKERELVAAIRGIVGSTYYADSVKGRFTISRDNAKNTVYLQMNSLKPEDTAVYYCNKAEVSTYYHTRSTYGGYDYWGQGTQVTVSS | low polyreactivity
14 | QVQLVESGGGLVQAGGSLRLSCAASGIIIQINAMGWYRPAPGKERELVAAITIDGTTNYADSVKGRFTISRDNAKNTVYLQMNILKPEDTAVYYCARRRSVYVWEPYQYDYWGQGTQVTVSS | low polyreactivity
15 | QVQLVESGGGLVQAGGSLRLSCAASGYTFSYYAMGWYRQAPGKERELVAAISWSGGSTYYADSVKGRFTISRDNAKNTVYLQMNSLKPEDTAFYYCAAKPWRGTLMRYGYWGQGTQVTVSS | high polyreactivity
16 | QVQLVESGGGLVQAGGSLRLSCAASGSTFVDYYMGWYRQATGKERELVAAITYSGARTYYADSVKGRFTISRDNAKNTVYLQMNSLKPEDTAVYYCNADQSTASDQLEFDYWGQGTQVTVSS | low polyreactivity
17 | QVQLVESGGGLVQAGGSLRLSCAASGSTFNRYAMGWYRQAPGKERELVAAITSTGGTNYADSVKGRFTISLDNAKNTVYLQMYSLKPEDTAVYYCAKRWLRGRSNYWGHGTQVTVSS | high polyreactivity
